Data taken from US20040121386.

Experiments:
[1] = target: unactive JNK1 (Upstate, Inc.)

B1: His-tagged MKK7γ1 (protein)
chain: AASSLEQKLSRLEAKLKQENREARRRIDLNLDISPQRPRPIIVITLSPAPAPSQRAALQLPLANDGGSRSPSSESSPQHPTPPARPRHMLGLPSTLFTPRSMESIEIDQKLQEIMKQTGYPTIGGQRYQAEINDLENLGEMGSGTCGQVWKMRFRKTGHVIAVKQMRRSGNKEENKRILMDLDVVLKSHDCPYIVQCFGTFITNTDVFIAMELMGTCAEKLKKRMQGPIPERILGKMTVAIVKALYYLKEKHGVIHRDVKPSNILLDERGQIKLCDFGISGRLVDSKAKTRSAGCAAYMAPERIDPPDPTKPDYDIRADVWSLGISLVELATGQFPYKNCKTDFEVLTKVLQEEPPLLPGHMGFSGDFQSFVKDCLTKDHRKRPKYNKLLEHSFIKRYETLEVDVASWFKDVMAKTESPRTSGVLSQPHLPFFR
Q: With B1 as the protein, how does the “phosphorylation in a two-step cascade kinase assay (γ-32P-ATP, SDS/PAGE, autoradiography)” value [1] read?
A: in turn was able to phosphorylate JNK1

Q: What about the “phosphorylation in a two-step cascade kinase assay (γ-32P-ATP, SDS/PAGE, autoradiography)” value (unactive p38) of the same protein?
A: MKK7γ1 was unable to phosphorylate p38
